Measured values from article PMC6973313 (mAbs, 2020).

Molecular target: T1, Mouse GIPR extracellular domain (residues 19 to 134) (mouse, UniProt Q0P543 19-134)
T1 sequence: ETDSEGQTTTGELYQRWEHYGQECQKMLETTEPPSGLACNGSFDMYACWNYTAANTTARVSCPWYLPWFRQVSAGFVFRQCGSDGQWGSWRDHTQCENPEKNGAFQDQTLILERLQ
Assay: crystal structure

binding result: binds
B1: Fab of mAb1 (Fab1) (Fab, V domains shown)
VH: DVQLVESGGGLVQPGGSRKLSCAASGFTFSSFGMHWVRQAPEKGLEWVAYISSGSSTIYYADTVKGRFTISRDNPKNTLFLQMTSLRSEDTAMYYCARGKYPTWIAYWGQGTLVTVSA
VL: DIVMTQSPSSLTVTAGEKVTMSCKSSQSLLNSGNQKNYLTWYQQKPGQPPKLLISWASTRDSGVPDRFTGSGSGTDFTLTISSVQAEDLAVYYCQNDYSYPLTFGAGTKLELKR
